# According to IntAct's records for PubMed 16365431:
# B1: Inhibitor of nuclear factor kappa-B kinase subunit beta (Homo sapiens), O14920 (parent)
# chain: MSWSPSLTTQTCGAWEMKERLGTGGFGNVIRWHNQETGEQIAIKQCRQELSPRNRERWCLEIQIMRRLTHPNVVAARDVPEGMQNLAPNDLPLLAMEYCQGGDLRKYLNQFENCCGLREGAILTLLSDIASALRYLHENRIIHRDLKPENIVLQQGEQRLIHKIIDLGYAKELDQGSLCTSFVGTLQYLAPELLEQQKYTVTVDYWSFGTLAFECITGFRPFLPNWQPVQWHSKVRQKSEVDIVVSEDLNGTVKFSSSLPYPNNLNSVLAERLEKWLQLMLMWHPRQRGTDPTYGPNGCFKALDDILNLKLVHILNMVTGTIHTYPVTEDESLQSLKARIQQDTGIPEEDQELLQEAGLALIPDKPATQCISDGKLNEGHTLDMDLVFLFDNSKITYETQISPRPQPESVSCILQEPKRNLAFFQLRKVWGQVWHSIQTLKEDCNRLQQGQRAAMMNLLRNNSCLSKMKNSMASMSQQLKAKLDFFKTSIQIDLEKYSEQTEFGITSDKLLLAWREMEQAVELCGRENEVKLLVERMMALQTDIVDLQRSPMGRKQGGTLDDLEEQARELYRRLREKPRDQRTEGDSQEMVRLLLQAIQSFEKKVRVIYTQLSKTVVCKQKALELLPKVEEVVSLMNEDEKTVVRLQEKRQKELWNLLKIACSKVRGPVSGSPDSMNASRLSQPGQLMSQPSTASNSLPEPAKKSEELVAEAHNLCTLLENAIQDTVREQDQSFTALDWSWLQTEEEEHSCLEQAS
# Variants of: B1
# Conditions: with ikba_human NFKBIA
row,effect of a mutation on the interaction,Variant
1,disrupting interaction,K44M
